Laboratory results taken from PMC3787391.

Target: ligated complex of zebrafish PlexinC1_(cyto) and human Rap1B with the 24-residue linker and the LPETGG sortase recognition motif (human | zebrafish) (UniProt P61224)
Experiment: AUC; sedimentation velocity, with 2 mM AlFx; 0.5, 4, 8 and 20 μM; 10 mM Tris pH 8, 50 mM NaCl, 2 mM TCEP, 2 mM MgCl2; 20°C, 42,000 rpm; c(s) analysis; monomer to dimer

Substance: ligated complex of zebrafish PlexinC1_(cyto) and human Rap1B with the 24-residue linker and the LPETGG sortase recognition motif (from UniProt P61224 2-166; A0A8M3ARP5 552-1147)
- stoichiometry N: 2
